Results: US20260097113A1 (Pfizer, published 2026)

Experiments:
[1] = molecular target: RSV A + RSV B bivalent composition (RSV subtype A; RSV subtype B); assay: AM14 Fab titration by SEC; Target cycle; 1 M 2-8°C
[2] = molecular target: RSV A + RSV B bivalent composition (RSV subtype A; RSV subtype B); assay: AM14 Fab titration by SEC; High-Slow 1 cycle; 3 M 40°C
[3] = molecular target: RSV A + RSV B bivalent composition (RSV subtype A; RSV subtype B); assay: AM14 Fab titration by SEC; Low-Fast cycle; T0 (second value)
[4] = molecular target: RSV A + RSV B bivalent composition (RSV subtype A; RSV subtype B); assay: AM14 Fab titration by SEC; High-Slow 2 cycle; T0 (second value)
[5] = molecular target: RSV A + RSV B bivalent composition (RSV subtype A; RSV subtype B); assay: AM14 Fab titration by SEC; Target cycle; 1 M 2-8°C (second value)
[6] = molecular target: RSV A + RSV B bivalent composition (RSV subtype A; RSV subtype B); assay: AM14 Fab titration by SEC; composition of Table 17; Pre-lyo Prep 2, T0
[7] = molecular target: T1, RSV F protein of subtype A comprising a polypeptide of SEQ ID NO: 1 and a polypeptide of SEQ ID NO: 2 (RSV subtype A, UniProt P11209 137-513; P03420 26-109); assay: AM14 ELISA; F1 (pH 8, 100 mM NaCl, 0% sucrose); T0
T1 construct: Stabilized prefusion F trimer made of three F2-F1 heterodimers; Produced recombinantly in CHO cells; also called RSV A; RSVA
T1 chain 1: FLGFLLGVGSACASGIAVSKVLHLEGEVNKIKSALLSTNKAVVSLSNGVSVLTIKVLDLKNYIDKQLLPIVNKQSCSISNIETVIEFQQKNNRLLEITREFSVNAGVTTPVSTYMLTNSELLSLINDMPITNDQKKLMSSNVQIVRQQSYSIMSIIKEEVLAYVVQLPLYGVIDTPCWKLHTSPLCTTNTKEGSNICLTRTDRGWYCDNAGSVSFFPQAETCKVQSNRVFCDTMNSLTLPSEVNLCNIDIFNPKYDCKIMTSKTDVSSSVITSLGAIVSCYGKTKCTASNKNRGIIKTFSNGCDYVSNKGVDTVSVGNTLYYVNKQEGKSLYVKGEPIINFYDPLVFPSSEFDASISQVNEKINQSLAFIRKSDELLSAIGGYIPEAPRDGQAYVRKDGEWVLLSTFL
T1 chain 2: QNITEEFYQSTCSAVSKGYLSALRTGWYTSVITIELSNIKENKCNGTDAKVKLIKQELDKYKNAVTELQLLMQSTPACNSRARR

[8] = molecular target: T1, RSV F protein of subtype A comprising a …; assay: AM14 ELISA; F11 (pH 7, 50 mM NaCl, 9.0% sucrose); T0
[9] = molecular target: T1, RSV F protein of subtype A comprising a …; assay: AM14 ELISA; F2 (pH 8, 0 mM NaCl, 0% sucrose); 1 wk 5°C
[10] = molecular target: T1, RSV F protein of subtype A comprising a …; assay: AM14 ELISA; F3 (pH 8, 0 mM NaCl, 9% sucrose); 2 wk 25°C
[11] = molecular target: T1, RSV F protein of subtype A comprising a …; assay: AM14 ELISA; F6 (pH 7, 0 mM NaCl, 4.5% sucrose); 1 wk 25°C
[12] = molecular target: T1, RSV F protein of subtype A comprising a …; assay: AM14 ELISA; F10 (pH 7, 50 mM NaCl, 4.5% sucrose); 2 wk 5°C
[13] = molecular target: T1, RSV F protein of subtype A comprising a …; assay: AM14 ELISA; F14 (pH 7, 50 mM NaCl, 4.5% sucrose); 1 wk 5°C
[14] = molecular target: T1, RSV F protein of subtype A comprising a …; assay: AM14 ELISA; F11 (pH 7, 50 mM NaCl, 9.0% sucrose); 1 wk 25°C
[15] = molecular target: T1, RSV F protein of subtype A comprising a …; assay: AM14 ELISA; F11 (pH 7, 50 mM NaCl, 9.0% sucrose); 2 wk 25°C
[16] = molecular target: T1, RSV F protein of subtype A comprising a …; assay: AM14 ELISA; F17 (pH 7, 50 mM NaCl, 4.5% trehalose); 2 wk 5°C
[17] = molecular target: T1, RSV F protein of subtype A comprising a …; assay: AM14 ELISA; F18 (pH 7, 50 mM NaCl, 3% sucrose + 3% mannitol); 2 wk 5°C

AM14 Fab
Prefusion Content (%) [1]: 59% | Prefusion Content (%) [2]: 52% | Prefusion Content (%) [3]: 82% | Prefusion Content (%) [4]: 73% | Prefusion Content (%) [5]: 69% | Prefusion Content (%) [6]: 81%

B1: AM14 (trimeric prefusion specific antibody of the AM14 ELISA) (antibody, V domains shown)
VH: EVQLVESGGGVVQPGRSLRLSCAASGFSFSHYAMHWVRQAPGKGLEWVAVISYDGENTYYADSVKGRFSISRDNSKNTVSLQMNSLRPEDTALYYCARDRIVDDYYYYGMDVWGQGATVTVSS
VL: DIQMTQSPSSLSASVGDRVTITCQASQDIKKYLNWYHQKPGKVPELLMHDASNLETGVPSRFSGRGSGTDFTLTISSLQPEDIGTYYCQQYDNLPPLTFGGGTKVEIKR
notes: Antibody as used in the AM14 ELISA, detected with an HRP-labeled secondary antibody
AM14 prefusion content (%), relative to standard [7]: 120% | AM14 prefusion content (%), relative to standard [8]: 102% | AM14 prefusion content (%), relative to standard [9]: 86% | AM14 prefusion content (%), relative to standard [10]: 72% | AM14 prefusion content (%), relative to standard [11]: 102% | AM14 prefusion content (%), relative to standard [12]: 71% | AM14 prefusion content (%), relative to standard [13]: 85% | AM14 prefusion content (%), relative to standard [14]: 91% | AM14 prefusion content (%), relative to standard [15]: 82% | AM14 prefusion content (%), relative to standard [16]: 64% | AM14 prefusion content (%), relative to standard [17]: 85%
